In patent US20090104149A1:

These substances were tested against human recombinant cyclophilin (human) (UniProt P62937) (assay: competitive ELISA, human recombinant cyclophilin on coated BSA-cyclosporin A; reference cyclosporin A).
human recombinant cyclophilin (human), sequence (P62937 whole entry): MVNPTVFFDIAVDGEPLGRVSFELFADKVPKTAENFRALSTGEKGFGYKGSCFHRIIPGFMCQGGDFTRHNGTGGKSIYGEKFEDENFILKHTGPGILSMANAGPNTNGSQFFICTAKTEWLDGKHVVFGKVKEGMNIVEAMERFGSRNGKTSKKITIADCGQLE

| Binding Ratio (BR), log10 of IC50 of test compound over IC50 of cyclosporin A | Substance |
| --- | --- |
| 0.1 log10 ratio | [dihydro-MeBmt]^1-[γ-hydroxy-MeLeu]^4-Ciclosporin (peptide) |
| -0.4 log10 ratio | [MeAla]^6-Ciclosporin (peptide) |
| 0.4 log10 ratio | [MeVal]^5-Ciclosporin (peptide) |
| 0.4 log10 ratio | [γ-hydroxy-MeLeu]^4-Ciclosporin (peptide) |
| 0 log10 ratio | [Ethyl-Val]^4-Ciclosporin (peptide) |
| 0.15 log10 ratio | [γ-hydroxy-MeLeu]^9-Ciclosporin (peptide) |
| -0.2 log10 ratio | [Melle]^4-Ciclosporin (peptide) |
| 0.1 log10 ratio | [Ethyl-lle]^4-Ciclosporin (peptide) |
| 0.1 log10 ratio | [MeVal]^4-Ciclosporin (peptide) |
| 0.35 log10 ratio | [8′-hydroxy-MeBmt]^5-Ciclosporin (peptide) |
